From PMC2914249, “Structure and Reactivity of Bacillus subtilis MenD Catalyzing the First Committed Step in Menaquinone Biosynthesis” (Journal of Molecular Biology, 2010)

B1: BsMenD (MenD, SEPHCHC synthase, EC 2.2.1.9) (Bacillus subtilis subsp. subtilis str. 168; F490A) (protein)
chain: MTVNPITHYIGSFIDEFALSGITDAVVCPGSRSTPLAVLCAAHPDISVHVQIDERSAGFFALGLAKAKQRPVLLICTSGTAAANFYPAVVEAHYSRVPIIVLTADRPHELREVGAPQAINQHFLFGNFVKFFTDSALPEESPQMLRYIRTLASRAAGEAQKRPMGPVHVNVPLREPLMPDLSDEPFGRMRTGRHVSVKTGTQSVDRESLSDVAEMLAEAEKGMIVCGELHSDADKENIIALSKALQYPILADPLSNLRNGVHDKSTVIDAYDSFLKDDELKRKLRPDVVIRFGPMPVSKPVFLWLKDDPTIQQIVIDEDGGWRDPTQASAHMIHCNASVFAEEIMAGLTAATRSSEWLEKWQFVNGRFREHLQTISSEDVSFEGNLYRILQHLVPENSSLFVGNSMPIRDVDTFFEKQDRPFRIYSNRGANGIDGVVSSAMGVCEGTKAPVTLVIGDLSFYHDLNGLLAAKKLGIPLTVILVNNDGGGIASFLPQASEKTHFEDLFGTPTGLDFKHAAALYGGTYSCPASWDEFKTAYAPQADKPGLHLIEIKTDRQSRVQLHRDMLNEAVREVKKQWEL
notes: full length (Thr2-Leu580 seen in crystal); N-terminal hexa-His tag with TEV site kept (24 extra residues); E. coli BL21(DE3); dimer peak used (tetramer in crystal); active site formed by two subunits
B2: BsMenD (MenD, SEPHCHC synthase, EC 2.2.1.9) (Bacillus subtilis subsp. subtilis str. 168) (protein)
chain: MTVNPITHYIGSFIDEFALSGITDAVVCPGSRSTPLAVLCAAHPDISVHVQIDERSAGFFALGLAKAKQRPVLLICTSGTAAANFYPAVVEAHYSRVPIIVLTADRPHELREVGAPQAINQHFLFGNFVKFFTDSALPEESPQMLRYIRTLASRAAGEAQKRPMGPVHVNVPLREPLMPDLSDEPFGRMRTGRHVSVKTGTQSVDRESLSDVAEMLAEAEKGMIVCGELHSDADKENIIALSKALQYPILADPLSNLRNGVHDKSTVIDAYDSFLKDDELKRKLRPDVVIRFGPMPVSKPVFLWLKDDPTIQQIVIDEDGGWRDPTQASAHMIHCNASVFAEEIMAGLTAATRSSEWLEKWQFVNGRFREHLQTISSEDVSFEGNLYRILQHLVPENSSLFVGNSMPIRDVDTFFEKQDRPFRIYSNRGANGIDGVVSSAMGVCEGTKAPVTLVIGDLSFYHDLNGLLAAKKLGIPLTVILVNNDGGGIFSFLPQASEKTHFEDLFGTPTGLDFKHAAALYGGTYSCPASWDEFKTAYAPQADKPGLHLIEIKTDRQSRVQLHRDMLNEAVREVKKQWEL
notes: as for B1
B3: BsMenD (MenD, SEPHCHC synthase, EC 2.2.1.9) (Bacillus subtilis subsp. subtilis str. 168; L493A) (protein)
chain: MTVNPITHYIGSFIDEFALSGITDAVVCPGSRSTPLAVLCAAHPDISVHVQIDERSAGFFALGLAKAKQRPVLLICTSGTAAANFYPAVVEAHYSRVPIIVLTADRPHELREVGAPQAINQHFLFGNFVKFFTDSALPEESPQMLRYIRTLASRAAGEAQKRPMGPVHVNVPLREPLMPDLSDEPFGRMRTGRHVSVKTGTQSVDRESLSDVAEMLAEAEKGMIVCGELHSDADKENIIALSKALQYPILADPLSNLRNGVHDKSTVIDAYDSFLKDDELKRKLRPDVVIRFGPMPVSKPVFLWLKDDPTIQQIVIDEDGGWRDPTQASAHMIHCNASVFAEEIMAGLTAATRSSEWLEKWQFVNGRFREHLQTISSEDVSFEGNLYRILQHLVPENSSLFVGNSMPIRDVDTFFEKQDRPFRIYSNRGANGIDGVVSSAMGVCEGTKAPVTLVIGDLSFYHDLNGLLAAKKLGIPLTVILVNNDGGGIFSFAPQASEKTHFEDLFGTPTGLDFKHAAALYGGTYSCPASWDEFKTAYAPQADKPGLHLIEIKTDRQSRVQLHRDMLNEAVREVKKQWEL
notes: as for B1
B4: BsMenD (MenD, SEPHCHC synthase, EC 2.2.1.9) (Bacillus subtilis subsp. subtilis str. 168; R428A) (protein)
chain: MTVNPITHYIGSFIDEFALSGITDAVVCPGSRSTPLAVLCAAHPDISVHVQIDERSAGFFALGLAKAKQRPVLLICTSGTAAANFYPAVVEAHYSRVPIIVLTADRPHELREVGAPQAINQHFLFGNFVKFFTDSALPEESPQMLRYIRTLASRAAGEAQKRPMGPVHVNVPLREPLMPDLSDEPFGRMRTGRHVSVKTGTQSVDRESLSDVAEMLAEAEKGMIVCGELHSDADKENIIALSKALQYPILADPLSNLRNGVHDKSTVIDAYDSFLKDDELKRKLRPDVVIRFGPMPVSKPVFLWLKDDPTIQQIVIDEDGGWRDPTQASAHMIHCNASVFAEEIMAGLTAATRSSEWLEKWQFVNGRFREHLQTISSEDVSFEGNLYRILQHLVPENSSLFVGNSMPIRDVDTFFEKQDRPFRIYSNAGANGIDGVVSSAMGVCEGTKAPVTLVIGDLSFYHDLNGLLAAKKLGIPLTVILVNNDGGGIFSFLPQASEKTHFEDLFGTPTGLDFKHAAALYGGTYSCPASWDEFKTAYAPQADKPGLHLIEIKTDRQSRVQLHRDMLNEAVREVKKQWEL
notes: as for B1
B5: BsMenD (MenD, SEPHCHC synthase, EC 2.2.1.9) (Bacillus subtilis subsp. subtilis str. 168; R409A) (protein)
chain: MTVNPITHYIGSFIDEFALSGITDAVVCPGSRSTPLAVLCAAHPDISVHVQIDERSAGFFALGLAKAKQRPVLLICTSGTAAANFYPAVVEAHYSRVPIIVLTADRPHELREVGAPQAINQHFLFGNFVKFFTDSALPEESPQMLRYIRTLASRAAGEAQKRPMGPVHVNVPLREPLMPDLSDEPFGRMRTGRHVSVKTGTQSVDRESLSDVAEMLAEAEKGMIVCGELHSDADKENIIALSKALQYPILADPLSNLRNGVHDKSTVIDAYDSFLKDDELKRKLRPDVVIRFGPMPVSKPVFLWLKDDPTIQQIVIDEDGGWRDPTQASAHMIHCNASVFAEEIMAGLTAATRSSEWLEKWQFVNGRFREHLQTISSEDVSFEGNLYRILQHLVPENSSLFVGNSMPIADVDTFFEKQDRPFRIYSNRGANGIDGVVSSAMGVCEGTKAPVTLVIGDLSFYHDLNGLLAAKKLGIPLTVILVNNDGGGIFSFLPQASEKTHFEDLFGTPTGLDFKHAAALYGGTYSCPASWDEFKTAYAPQADKPGLHLIEIKTDRQSRVQLHRDMLNEAVREVKKQWEL
notes: as for B1

How the values were obtained:
purified protein [1] = substrate: O=C(O)CCC(=O)C(=O)O; assay: purified protein; type: biochemical, Bacillus subtilis; conditions: 50 mM Tris-HCl pH 7.8, 20 mM NaCl, 5 mM MgSO4, 23 °C, co-substrate isochorismate
purified protein [2] = substrate: C=C(O[C@H]1C=CC=C(C(=O)O)[C@@H]1O)C(=O)O; assay: purified protein; type: biochemical, Bacillus subtilis; conditions: 50 mM Tris-HCl pH 7.8, 20 mM NaCl, 5 mM MgSO4, 23 °C, co-substrate α-ketoglutarate

| Protein | Km (purified protein [1]) [µM] | kcat (purified protein [1]) [s⁻¹] | kcat/Km (purified protein [1]) [M⁻¹ s⁻¹] | Km (purified protein [2]) [µM] | kcat (purified protein [2]) [s⁻¹] | kcat/Km (purified protein [2]) [M⁻¹ s⁻¹] |
| --- | --- | --- | --- | --- | --- | --- |
| B1 | 274 ± 12 | 0.0183 ± 0.00167 | 65 ± 3.33 | – | – | – |
| B2 | 22 ± 5 | 0.233 ± 0.0333 | 10700 ± 5000 | 1.1 ± 0.2 | 0.317 ± 0.0167 | 317000 ± 50000 |
| B3 | – | – | – | 39 ± 1 | 0.317 ± 0.0167 | 8170 ± 500 |
| B4 | 514 ± 54 | 0.0567 ± 0.00333 | 117 ± 16.7 | – | – | – |
| B5 | 159 ± 18 | – | – | 8.5 ± 1.2 | 0.0233 ± 0.00167 | 2670 ± 333 |
